What all share (assay): cryo-EM structure
Assay [1] deals with T1, Med14 (S. pombe Mediator subunit) (S. pombe, UniProt Q9P7Y4 1-879).
T1 sequence (looked up): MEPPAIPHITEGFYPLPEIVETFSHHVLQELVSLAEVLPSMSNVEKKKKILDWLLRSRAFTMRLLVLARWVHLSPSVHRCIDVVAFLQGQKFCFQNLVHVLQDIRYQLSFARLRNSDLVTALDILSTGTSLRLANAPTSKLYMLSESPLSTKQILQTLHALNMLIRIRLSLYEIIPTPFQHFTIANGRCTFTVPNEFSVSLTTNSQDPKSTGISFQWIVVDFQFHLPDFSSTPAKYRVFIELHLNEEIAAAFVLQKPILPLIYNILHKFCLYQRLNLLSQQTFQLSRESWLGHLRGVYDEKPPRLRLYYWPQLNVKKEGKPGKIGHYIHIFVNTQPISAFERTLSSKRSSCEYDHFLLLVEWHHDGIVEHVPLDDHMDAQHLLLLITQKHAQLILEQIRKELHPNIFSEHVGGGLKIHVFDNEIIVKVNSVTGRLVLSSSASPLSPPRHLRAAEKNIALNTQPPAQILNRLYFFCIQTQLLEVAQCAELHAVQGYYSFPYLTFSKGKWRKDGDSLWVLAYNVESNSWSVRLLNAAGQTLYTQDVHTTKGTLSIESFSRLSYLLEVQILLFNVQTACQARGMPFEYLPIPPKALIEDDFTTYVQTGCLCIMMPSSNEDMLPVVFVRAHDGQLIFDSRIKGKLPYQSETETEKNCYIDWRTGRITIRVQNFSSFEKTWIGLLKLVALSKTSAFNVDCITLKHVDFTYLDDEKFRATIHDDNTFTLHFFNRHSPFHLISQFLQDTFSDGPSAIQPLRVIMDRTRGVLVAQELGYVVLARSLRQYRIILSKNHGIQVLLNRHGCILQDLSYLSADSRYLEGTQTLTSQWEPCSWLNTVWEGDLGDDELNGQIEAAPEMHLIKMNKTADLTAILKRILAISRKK

Assay [2] deals with T2, Med17 (S. pombe Mediator subunit) (S. pombe, UniProt P87306 1-545).
T2 sequence (looked up): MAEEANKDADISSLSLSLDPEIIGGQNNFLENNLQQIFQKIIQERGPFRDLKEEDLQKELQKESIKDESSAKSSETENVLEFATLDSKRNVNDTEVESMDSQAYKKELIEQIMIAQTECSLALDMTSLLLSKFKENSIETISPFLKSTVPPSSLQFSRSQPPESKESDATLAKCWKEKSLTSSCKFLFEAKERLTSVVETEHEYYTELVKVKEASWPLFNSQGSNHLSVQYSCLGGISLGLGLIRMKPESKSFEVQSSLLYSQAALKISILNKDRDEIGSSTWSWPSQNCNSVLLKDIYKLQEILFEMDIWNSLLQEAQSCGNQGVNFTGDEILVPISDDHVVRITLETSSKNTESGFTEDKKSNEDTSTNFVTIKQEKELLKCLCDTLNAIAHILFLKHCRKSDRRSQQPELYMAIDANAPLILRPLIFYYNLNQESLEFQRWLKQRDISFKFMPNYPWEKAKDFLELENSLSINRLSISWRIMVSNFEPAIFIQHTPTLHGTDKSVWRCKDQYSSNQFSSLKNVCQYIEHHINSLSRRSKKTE

In assay [3] the target is T3, Med18 (S. pombe Mediator subunit) (S. pombe, UniProt O14198 1-207).
T3 sequence (looked up): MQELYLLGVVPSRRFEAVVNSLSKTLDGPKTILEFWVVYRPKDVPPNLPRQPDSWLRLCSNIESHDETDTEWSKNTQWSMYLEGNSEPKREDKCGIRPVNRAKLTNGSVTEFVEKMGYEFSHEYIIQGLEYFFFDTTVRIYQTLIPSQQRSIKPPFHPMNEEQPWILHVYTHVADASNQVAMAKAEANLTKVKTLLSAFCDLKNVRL

Results on four molecules are retold here after publication PMC6692119 (Nature, 2017).

B1: Med27 (S. pombe Mediator subunit) (natural protein, UniProt Q10477 1-273, looked up)
chain: MSLEEQRTRDELKHKLLDLNQLHEQLAELRTICPSLLKLLHPETGTSRKFEKSAQEAIEKVNSFYTHLKSSQNVFDYAEKSLQADSSNLLPTYLYNSEDLSNDTENNETKSINGKSALDLKEPHHSELHDNDNFQNSDINIESFKGDIEASGSILTTHENKSFTLKLANELEFIFFHDTRGKFSVYCSSSKDDAITFSINRNNNFLGNLWSLMPKILDYQHLYSKPCDFCKSLISPVYLELPSVRRNANSTVKPTSKDILALHAECVPAQSDL
With B1, the binding result in assay [1] and in assay [2] was “binds” in each case.

B2: Med31 (S. pombe Mediator subunit) (natural protein, UniProt Q9USH1 1-139, looked up)
chain: METKWLLSKVPDDKSRFEIELEFVQMLSNPWYLNFLAQHKYFEDEAFLQYLEYMEYWREPEYVKFIIYPTCLHMLTLLKNPQFRNDISRADLSKQVNDEIYYEWLGKGLQQYGSADDATLSQPQQEEDEKKVDVKKENE
Take B2: the binding result in assay [2] is “binds”.

B3: Med7-TAP (S. pombe Mediator subunit) (natural protein, UniProt O60104 1-376, looked up)
chain: MEPNEGVQLFSAFPPPPPYYKLFTRENIEKVISNMEKEAKHEDDANTLQPKTEEEIESLAKLFKKPSCLTSGTYQMFGDTWRLDEAIPSLKEFGIPELYKDIKDGEDEIEVVEYDPKSNAIVGTSFTRVHDYDKNSPIENEKILEDDQHTAMKEKDNESDKTMKDVEEKTEPSLKKEEEDIQMKEPLDSQDTGAVSASSVNEGFRADQKSKDGETSDLIKIPRRAYELRFLSRSLMLNFLELLGIMAKAPEQFPSKVENIRVLLLNLHHLINDYRPHQSRESLIMLLEKQLKHEESQVELLRTHNRQMTETLEKYKSLDFNMEKEGDVIQQLKSSIKKPLSGAEDEQKSRSMFSKNDEKLKKSLELMEDVIKRDLS
As for B3, the binding result in assay [2] is “binds”.

B4: Med20 (S. pombe Mediator subunit) (natural protein, UniProt Q10317 1-193, looked up)
chain: MPVHGVIYYSSPSMATFLSPAQDNLVRTYFAQHLKKWVVQYKLYRNAVTPKTLEFLKQNINPSMLACVDEATMIDAEPELEDIIVRTKLWNFRQSFTIEGSIYEVGSFKVAIANVLQKSVWKGILFHVTYDGTESVDLARPIIQEFFLKCFLQNNKSVTPVYESFFNQPRHSLDSKLLLQLFKQRIDTVSQRT
Turning to B4, in assay [3], the binding result is reported as “binds”.
